In patent US20220031806A1 (Five Prime, published 2022):

Target: T1, mouse PD-L1 on mouse splenocytes (mouse, UniProt Q9EP73 19-290)
T1 construct: whole, on cells
Test: flow cytometry receptor occupancy on BALB/c and C57Bl/6 splenocytes, free PD-L1 by competing Ab clone
Method: FIGS. 1A and 1B: Mouse splenocytes were evaluated for mCD80-Fc engagement and receptor occupancy. (A) Splenic immune cell subsets were identified as CD11b+ DCs (B220-Thy1.2−CD49b−CD11c+CD11b+), CD11b− DCs (B220− Thy1.2−CD49b-CD11c+CD11b−), Macrophages (B220−Thy1.2−CD49b−CD11c−CD11b+), NK cells (B220− Thy1.2−CD49b+), and T cells (CD3+CD4+ or CD3+CD8+) by flow cytometry. Representative flow cytometry plots depict the gating strategy. (B) Increasing concentrations of mCD80-Fc were incubated with mouse splenocytes (BALB/c strain top row; C57Bl/6 strain bottom row), and mCD80-Fc engagement was measured both via biotin-labeled anti-mIgG followed by streptavidin Alexa488 (“bound drug”) and by detection of CD80 ligands with competing Ab clones (“free” PD-L1 or CD28) enumerated as Antibody Binding Capacity (ABC) values. CTLA-4 was not detected on any immune cell evaluated (data not shown). L.D., limit of detection of ABC. Graphs depict mean±SD of n=3 animals/strain measured in technical duplicates. […]
Mouse splenocytes were prepared from adult BALB/c and […] mice by methods known to those of ordinary skill in the art. […] Data from the samples was acquired on a BD LSRII or BD LSRFortessa and analyzed using FlowJo, Excel, and Graphpad Prism.

T1 sequence (Q9EP73 19-290): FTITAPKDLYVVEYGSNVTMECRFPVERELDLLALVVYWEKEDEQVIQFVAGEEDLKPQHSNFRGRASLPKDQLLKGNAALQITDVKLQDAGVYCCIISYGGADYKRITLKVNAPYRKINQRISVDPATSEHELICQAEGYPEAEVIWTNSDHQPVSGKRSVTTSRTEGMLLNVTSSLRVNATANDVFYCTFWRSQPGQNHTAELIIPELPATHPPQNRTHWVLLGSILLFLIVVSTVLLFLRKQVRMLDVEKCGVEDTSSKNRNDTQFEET

binding result: no binding (tested: 0-1000 µg/mL)
B1: mouse surrogate fusion protein comprising the extracellular domain (ECD) of murine CD80 linked to the Fc domain of mouse IgG2a wild type (mCD80-Fc) (Fc fusion)
chain: VDEQLSKSVKDKVLLPCRYNSPHEDESEDRIYWQKHDKVVLSVIAGKLKVWPEYKNRTLYDNTTYSLIILGLVLSDRGTYSCVVQKKERGTYEVKHLALVKLSIKADFSTPNITESGNPSADTKRITCFASGGFPKPRFSWLENGRELPGINTTISQDPESELYTISSQLDFNTTRNHTIKCLIKYGDAHVSEDFTWEKPPEDPPDSKNEPRGPTIKPCPPCKCPAPNLLGGPSVFIFPPKIKDVLMISLSPIVTCVVVDVSEDDPDVQISWFVNNVEVHTAQTQTHREDYNSTLRVVSALPIQHQDWMSGKEFKCKVNNKDLPAPIERTISKPKGSVRAPQVYVLPPPEEEMTKKQVTLTCMVTDFMPEDIYVEWTNNGKTELNYKNTEPVLDSDGSYFMYSKLRVEKKNWVERNSYSCSVVHEGLHNHHTTKSFSRTPGK
notes: also called Murine CD80 ECD Fusion Molecules; Mouse CD80 ECD mouse Fc IgG2a
